This assay has as its target T1, Ubc13 (human, UniProt P61088 1-152).
T1 construct: Ubc13, ubiquitin-conjugating enzyme (E2), human; also called purified Ubc13; source: recombinant, purified
T1 sequence (looked up): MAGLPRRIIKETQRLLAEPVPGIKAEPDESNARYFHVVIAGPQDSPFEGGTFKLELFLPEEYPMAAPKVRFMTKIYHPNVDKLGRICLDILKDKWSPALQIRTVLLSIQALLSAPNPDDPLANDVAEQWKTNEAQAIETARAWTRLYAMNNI
The experiment in a line: SPR; Uev1 immobilised on a Biacore CM5 chip (1179,1 RU); Ubc13 in the mobile phase; 10 mM HEPES, 0.15 M NaCl, pH 7.4; Biacore T100. The following applies: both partners purified.

As usually defined, the Kd is the free concentration of one partner at which half of the binding sites on the other are occupied at equilibrium, for simple one-to-one binding.

B1: Uev1 (natural protein)
chain: not shown
notes: Uev1, ubiquitin-conjugating enzyme variant 1, human; also called recombinant Uev1; source: recombinant, purified
In turn, B1 came in with a Kd of 1 nM.
